In the test the target is T1, human cardiac muscle-derived troponin I (human, UniProt P19429 2-210).
T1 construct: Immobilised on a CM5 chip at about 500 RU; also called troponin I derived from human myocardium; human myocardial troponin I
Kind of test: SPR (Biacore T100), troponin I immobilised on CM5 chip, as in Example 1.

The record followed here is patent WO2014192202A1 (dated 2014).

T1 sequence (P19429 2-210 limits assumed): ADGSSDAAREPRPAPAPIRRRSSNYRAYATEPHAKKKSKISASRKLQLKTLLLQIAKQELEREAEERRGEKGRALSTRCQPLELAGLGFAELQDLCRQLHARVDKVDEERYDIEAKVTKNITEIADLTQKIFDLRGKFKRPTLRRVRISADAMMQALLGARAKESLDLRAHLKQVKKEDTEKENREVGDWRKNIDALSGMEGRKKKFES

B1: wild type scFv antibody fragment (SEQ ID NO: 62) (scFv)
scFv: DIVMTQSPSSLAMSVGQKVTMSCKSSQSLLNSSNQKNYLAWYQQKPGQSPKLLVYFASTRESGVPDRFIGSGSGTDFTLTISSVQAEDLADYFCQQHYSTPLTFGAGTKLELKRGGGGSGGGGSGGGGSEVKLEESGGGLVKPGGTLKLSCAASGFTFSSYAMSWVRQTPEKRLDWVATISSGGSYIFYPDSVKGRFTISRDNARNTLYLQMNSLRSEDTAMYYCARHHNPDKSGFAYWGQGTLVTVSAAAALEHHHHHH
notes: also called wild scFv antibody fragment
As to B1, the binding result is reported as “binds”.
